How the values were obtained:
[1] = substrate: CCCCCCCCCCCCCCC[C@@H](O)[C@H](CO)NC(=O)CCCCCCCCCCCC; test: LC-MS/MS of C13-Cerd7 formed; Hanes-Woolf plot; type: biochemical, Homo sapiens; conditions: 0.2 M Tris/HCl pH 7, 0.2% Triton X-100, 1 mM NADPH, 37°C, deuterated substrate
From the text: LC-MS/MS of C13-Cerd7 formed; Hanes-Woolf plot on DEGS1

[2] = substrate: CCCCCCCCCCCCCCC[C@@H](O)[C@H](CO)NC(=O)CCCCCCCCCCCC; test: LC-MS/MS of C13-Cerd7 formed; Hanes-Woolf plot; type: biochemical, Homo sapiens; conditions: homogenate of transfected KO-DES-HEK (80 μg, 30 min) plus 100 μg KO-DES-HEK homogenate, 0.2 M Tris/HCl pH 7, 0.2% Triton X-100, 1 mM NADPH, 37°C, deuterated substrate
From the text: LC-MS/MS of C13-Cerd7 formed; Hanes-Woolf plot on DEGS2

[3] = homogenate of transfected KO-DES-HEK (80 μg, 30 min) plus 100 μg KO-DES-HEK homogenate

Row | Protein | Km [1, 3] [µM] | other results
1 | DEGS1 (Homo sapiens) (protein, full-length cDNA (from Hep3B RNA) in pcDNA3, untagged, transfected into DEGS1-knockout HEK-293T (KO-DES-HEK); cell homogenate with Triton X-100) GSRVSREDFEWVYTDQPHADRRREILAKYPEIKSLMKPDPNLIWIIIMMVLTQLGAFYIVKDLDWKWVIFGAYAFGSCINHSMTLAIHEIAHNAAFGNCKAMWNRWFGMFANLPIGIPYSISFKRYHMDHHRYLGADGVDVDIPTDFEGWFFCTAFRKFIWVILQPLFYAFRPLFINPKPITYLEVINTVAQVTFDILIYYFLGIKSLVYMLAASLLGLGLHPISGHFIAEHYMFLKGHETYSYYGPLNLLTFNVGYHNEHHDFPNIPGKSLPLVRKIAAEYYDNLPHYNSWIKVLYDFVMDDTISPYSRMKRHQKGEMVLE | – | Km ([1]; homogenate of transfected KO-DES-HEK (40 μg, 10 min) plus 100 μg KO-DES-HEK homogenate): 2.41 µM
2 | DEGS1 (Homo sapiens; A280V) (protein, full-length cDNA (from Hep3B RNA) in pcDNA3, untagged, transfected into DEGS1-knockout HEK-293T (KO-DES-HEK); cell homogenate with Triton X-100) GSRVSREDFEWVYTDQPHADRRREILAKYPEIKSLMKPDPNLIWIIIMMVLTQLGAFYIVKDLDWKWVIFGAYAFGSCINHSMTLAIHEIAHNAAFGNCKAMWNRWFGMFANLPIGIPYSISFKRYHMDHHRYLGADGVDVDIPTDFEGWFFCTAFRKFIWVILQPLFYAFRPLFINPKPITYLEVINTVAQVTFDILIYYFLGIKSLVYMLAASLLGLGLHPISGHFIAEHYMFLKGHETYSYYGPLNLLTFNVGYHNEHHDFPNIPGKSLPLVRKIVAEYYDNLPHYNSWIKVLYDFVMDDTISPYSRMKRHQKGEMVLE | 3.29 | –
3 | DEGS1 (Homo sapiens; L175Q) (protein, full-length cDNA (from Hep3B RNA) in pcDNA3, untagged, transfected into DEGS1-knockout HEK-293T (KO-DES-HEK); cell homogenate with Triton X-100) GSRVSREDFEWVYTDQPHADRRREILAKYPEIKSLMKPDPNLIWIIIMMVLTQLGAFYIVKDLDWKWVIFGAYAFGSCINHSMTLAIHEIAHNAAFGNCKAMWNRWFGMFANLPIGIPYSISFKRYHMDHHRYLGADGVDVDIPTDFEGWFFCTAFRKFIWVILQPLFYAFRPQFINPKPITYLEVINTVAQVTFDILIYYFLGIKSLVYMLAASLLGLGLHPISGHFIAEHYMFLKGHETYSYYGPLNLLTFNVGYHNEHHDFPNIPGKSLPLVRKIAAEYYDNLPHYNSWIKVLYDFVMDDTISPYSRMKRHQKGEMVLE | 5.99 | –
4 | DEGS1 (Homo sapiens; N189D) (protein, full-length cDNA (from Hep3B RNA) in pcDNA3, untagged, transfected into DEGS1-knockout HEK-293T (KO-DES-HEK); cell homogenate with Triton X-100) GSRVSREDFEWVYTDQPHADRRREILAKYPEIKSLMKPDPNLIWIIIMMVLTQLGAFYIVKDLDWKWVIFGAYAFGSCINHSMTLAIHEIAHNAAFGNCKAMWNRWFGMFANLPIGIPYSISFKRYHMDHHRYLGADGVDVDIPTDFEGWFFCTAFRKFIWVILQPLFYAFRPLFINPKPITYLEVIDTVAQVTFDILIYYFLGIKSLVYMLAASLLGLGLHPISGHFIAEHYMFLKGHETYSYYGPLNLLTFNVGYHNEHHDFPNIPGKSLPLVRKIAAEYYDNLPHYNSWIKVLYDFVMDDTISPYSRMKRHQKGEMVLE | 2.75 | –
5 | DEGS1 (Homo sapiens; N255S) (protein, full-length cDNA (from Hep3B RNA) in pcDNA3, untagged, transfected into DEGS1-knockout HEK-293T (KO-DES-HEK); cell homogenate with Triton X-100) GSRVSREDFEWVYTDQPHADRRREILAKYPEIKSLMKPDPNLIWIIIMMVLTQLGAFYIVKDLDWKWVIFGAYAFGSCINHSMTLAIHEIAHNAAFGNCKAMWNRWFGMFANLPIGIPYSISFKRYHMDHHRYLGADGVDVDIPTDFEGWFFCTAFRKFIWVILQPLFYAFRPLFINPKPITYLEVINTVAQVTFDILIYYFLGIKSLVYMLAASLLGLGLHPISGHFIAEHYMFLKGHETYSYYGPLNLLTFSVGYHNEHHDFPNIPGKSLPLVRKIAAEYYDNLPHYNSWIKVLYDFVMDDTISPYSRMKRHQKGEMVLE | 4.34 | –
6 | DEGS2 (Homo sapiens) (protein, full-length cDNA (from colon mucosa RNA) in pcDNA3, transfected into DEGS1-knockout HEK-293T (KO-DES-HEK); cell homogenate with Triton X-100) GNSASRSDFEWVYTDQPHTQRRKEILAKYPAIKALMRPDPRLKWAVLVLVLVQMLACWLVRGLAWRWLLFWAYAFGGCVNHSLTLAIHDISHNAAFGTGRAARNRWLAVFANLPVGVPYAASFKKYHVDHHRYLGGDGLDVDVPTRLEGWFFCTPARKLLWLVLQPFFYSLRPLCVHPKAVTRMEVLNTLVQLAADLAIFALWGLKPVVYLLASSFLGLGLHPISGHFVAEHYMFLKGHETYSYYGPLNWITFNVGYHVEHHDFPSIPGYNLPLVRKIAPEYYDHLPQHHSWVKVLWDFVFEDSLGPYARVKRVYRLAKDGL | – | Km [2]: 15.31 µM

Reference: article PMC10940770, “Loss of function and reduced levels of sphingolipid desaturase DEGS1 variants are both relevant in disease mechanism” (Journal of Lipid Research, 2024)
